Literature values in publication PMC4815360.

Columns and labels:
[1] = molecular target: Endothelin receptor ETA (Homo sapiens) (UniProt P25101); test: saturation radioligand binding
[2] = molecular target: Endothelin receptor ETA (Rattus norvegicus) (UniProt P26684); test: radioligand binding
[3] = molecular target: Endothelin receptor ETA (Homo sapiens) (UniProt P25101); test: radioligand
[4] = molecular target: Endothelin receptor ETA (Rattus norvegicus) (UniProt P26684); test: radioligand

Sequence of UniProt P25101 (P25101 21-427): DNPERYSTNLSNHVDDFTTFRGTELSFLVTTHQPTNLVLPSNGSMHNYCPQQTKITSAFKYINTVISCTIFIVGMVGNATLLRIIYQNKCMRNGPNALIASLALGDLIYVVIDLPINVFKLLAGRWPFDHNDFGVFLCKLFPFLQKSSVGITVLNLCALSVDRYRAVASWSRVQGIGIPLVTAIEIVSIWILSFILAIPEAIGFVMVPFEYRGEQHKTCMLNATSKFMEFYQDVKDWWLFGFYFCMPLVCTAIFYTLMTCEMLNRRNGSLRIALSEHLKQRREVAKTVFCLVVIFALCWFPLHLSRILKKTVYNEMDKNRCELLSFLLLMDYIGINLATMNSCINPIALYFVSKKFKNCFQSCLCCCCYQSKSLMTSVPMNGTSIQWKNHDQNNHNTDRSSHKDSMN
Sequence of UniProt P26684 (P26684 21-426): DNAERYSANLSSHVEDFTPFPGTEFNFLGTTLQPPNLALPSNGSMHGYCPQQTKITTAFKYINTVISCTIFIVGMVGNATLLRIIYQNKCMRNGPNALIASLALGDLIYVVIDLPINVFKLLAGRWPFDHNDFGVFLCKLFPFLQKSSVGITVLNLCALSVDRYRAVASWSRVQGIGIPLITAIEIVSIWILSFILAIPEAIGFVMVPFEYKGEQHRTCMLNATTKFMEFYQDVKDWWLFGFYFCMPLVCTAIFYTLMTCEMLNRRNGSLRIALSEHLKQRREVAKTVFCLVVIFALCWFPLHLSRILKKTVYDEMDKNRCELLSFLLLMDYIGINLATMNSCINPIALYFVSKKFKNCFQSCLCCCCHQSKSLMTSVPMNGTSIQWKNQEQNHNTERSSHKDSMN

Substance: Endothelin-2 (from UniProt P20800)
- Kd [1]: 0.7 nM
- Kd [2]: 0.1 nM

Substance: Endothelin-1 (from UniProt P05305)
- Kd [3]: 0.4 nM
- Kd [4]: 0.1 nM
